Assay results from PMC8457831, “Structural basis for diguanylate cyclase activation by its binding partner in Pseudomonas aeruginosa” (eLife, 2021).

Legend:
SiaD [1] = target: T1, SiaD (Pseudomonas aeruginosa, UniProt A0A069QEY1); experiment: ITC (also HPLC assay of c-di-GMP production from GTP); type: binding; design: gene pleD_6; SiaD alone, full length
SiaD [2] = target: T1, SiaD; experiment: X-ray crystal structure of SiaC–SiaD–GpCpp complex, […] Å; type: binding; design: gene pleD_6; full-length SiaD (redefined start at the upstream ATG codon); with SiaC (2:4 SiaD–SiaC complex)
SiaD [3] = target: T1, SiaD; experiment: HPLC DGC activity assay with […] c-di-GMP; thermal shift (+[…] ℃ at […]); SEC; inhibition abolished by R201A; type: biochemical; design: gene pleD_6; full-length SiaD, alone and in the SiaC–SiaD complex
[4] = target: SiaD (full length, sumo-His tag removed) (Pseudomonas aeruginosa); experiment: SEC-MALS; SiaD alone at 4 mg/ml, WTC-030S5 column, 20 mM HEPES pH 7.0, 150 mM NaCl, 1 mM DTT
[5] = target: SiaD (full length, sumo-His tag removed) (Pseudomonas aeruginosa); experiment: crystal structure; SiaC-SiaD complex (10 mg/ml) with GpCpp 1:5, sitting drops at 18°C, space group C222(1), 2.65 Å
[6] = target: SiaD (full length, sumo-His tag removed) (Pseudomonas aeruginosa); experiment: SEC-MALS; single proteins: SiaC at 1.5 mg/ml, SiaD at 8 mg/ml, WTC-030S5 column, 20 mM HEPES pH 7.0, 150 mM NaCl, DTT
[7] = target: SiaD (full length, sumo-His tag removed) (Pseudomonas aeruginosa); experiment: SEC-MALS; SiaC-SiaD complexes (wild type and SiaD motif mutants) at 2 mg/ml, WTC-030S5 column, 20 mM HEPES pH 7.0, 150 mM NaCl, DTT
[8] = target: SiaD (full length, sumo-His tag removed) (Pseudomonas aeruginosa); experiment: native gel or EMSA; blue native PAGE, 8% gel, SiaD (25 ug) alone or mixed with excess SiaC (35 ug), 50 min at 15 mA, Coomassie stain
[9] = target: SiaD (full length, sumo-His tag removed) (Pseudomonas aeruginosa); experiment: SAXS; synchrotron solution SAXS (SEC-SAXS for SiaD), 20 mM HEPES pH 8.0, 150 mM NaCl, 1 mM DTT, 25°C; 8 mg/ml SiaD or 11 mg/ml SiaC-SiaD complex
[10] = target: SiaD (full length, sumo-His tag removed) (Pseudomonas aeruginosa); experiment: ITC; SiaD in the cell, SiaC or SiaC mutant in the syringe, 25°C, MicroCal iTC200 or PEAQ-ITC
[11] = target: SiaD^S50A-Q54A (Pseudomonas aeruginosa); experiment: SEC-MALS; SiaC-SiaD complexes (wild type and SiaD motif mutants) at 2 mg/ml, WTC-030S5 column, 20 mM HEPES pH 7.0, 150 mM NaCl, DTT
[12] = target: SiaD^S82A-Q86A (Pseudomonas aeruginosa); experiment: as above
[13] = target: SiaD (full length, sumo-His tag removed) (Pseudomonas aeruginosa); experiment: SPR; Biacore T200, protein amine-coupled to a CM5 chip (about 5000 RU), 25°C; running buffer 10 mM Tris-HCl, 150 mM NaCl, 0.05% P-20, pH 7.5; SiaC or SiaC^M3 at varying concentrations over SiaD; fits to a 2:1 interaction

## Nc1nc2c(ncn2[C@@H]2O[C@H](COP(=O)(O)OP(=O)(O)OP(=O)(O)O)[C@@H](O)[C@H]2O)c(=O)[nH]1 [GTP]
SiaD [1]
  Kd: 12000 nM

## Nc1nc2c(ncn2[C@@H]2O[C@H](COP(=O)(O)CP(=O)(O)OP(=O)(O)O)[C@@H](O)[C@H]2O)c(=O)[nH]1 [GpCpp]
SiaD [2]
  X-ray crystal structure of SiaC-SiaD-GpCpp complex, 2.65 Å: a non-hydrolyzable GTP analog GpCpp molecule was observed to bind in the active site of SiaD-A

## Nc1nc2c(ncn2[C@@H]2O[C@@H]3CO[P@](=O)(O)O[C@H]4[C@@H](O)[C@H](n5cnc6c(=O)[nH]c(N)nc65)O[C@@H]4CO[P@](=O)(O)O[C@H]3[C@H]2O)c(=O)[nH]1 [c-di-GMP]
SiaD [3]
  HPLC DGC activity assay with 50 μM c-di-GMP; thermal shift (+7.1 °C at 25 μM); S: the enzyme activity of SiaD was inhibited by c-di-GMP more extensively than the SiaC–SiaD complex

## SiaD (full length, sumo-His tag removed) (enzyme)
[4]
  stoichiometry N: 5
[5]
  stoichiometry N: 2
[6]
  stoichiometry N: 5
[7]
  stoichiometry N: 2
[8]
  stoichiometry N: 5
[9]
  stoichiometry N: 5

B1: SiaC (sumo-His tag removed) (natural protein)
chain: MSDLHIPGTQSTPAIQGDWQAGRLSMQGDSYPENSYELFGQVIDWVERFLADGQRPLELDLRLLYLNTSSIKAMMDILDLLEEAHQGGRPVSLRWHYDRRNERVAELAEEFREDCSFPFAIQAHDE
[10]
  Kd: 49.8 nM
[11]
  stoichiometry N (SiaC per SiaD (2:4 SiaD:SiaC)): 2
[12]
  stoichiometry N (SiaC per SiaD (2:4 SiaD:SiaC)): 2

B2: SiaC-His (natural protein)
chain: B1 chain
[13]
  Kd: 11.8 nM
